Test results reported in patent US20160376333A1 (University of Washington, published 2016).

What was measured:
[1] = target: T1, human Mcl-1 a.a. 172-327 with C-terminal avi-6his tag (human); assay: yeast surface display titration (apparent KD)
T1 chain: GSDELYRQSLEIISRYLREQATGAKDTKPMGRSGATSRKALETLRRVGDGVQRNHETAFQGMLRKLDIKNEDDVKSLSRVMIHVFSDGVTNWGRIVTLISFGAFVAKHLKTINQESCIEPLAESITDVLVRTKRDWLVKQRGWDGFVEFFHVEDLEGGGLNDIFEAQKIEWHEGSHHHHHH

[2] = target: T2, human Bfl-1 a.a. 1-153 (C4S) with C-terminal avi-6his tag (human); assay: yeast surface display titration (apparent KD)
T2 construct: also called A1/Bfl-1
T2 chain: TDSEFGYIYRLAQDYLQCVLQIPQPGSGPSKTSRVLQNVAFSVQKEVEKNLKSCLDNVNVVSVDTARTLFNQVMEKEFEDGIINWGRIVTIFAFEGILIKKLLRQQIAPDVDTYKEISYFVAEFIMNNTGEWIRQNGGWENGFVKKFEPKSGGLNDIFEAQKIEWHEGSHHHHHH

[3] = target: T3, human Bcl-w a.a. 1-182 with C-terminal avi-6his tag (human, UniProt Q92843 1-182); assay: yeast surface display titration (apparent KD)
T3 construct: range 1-182; also called BCL2L2
T3 sequence: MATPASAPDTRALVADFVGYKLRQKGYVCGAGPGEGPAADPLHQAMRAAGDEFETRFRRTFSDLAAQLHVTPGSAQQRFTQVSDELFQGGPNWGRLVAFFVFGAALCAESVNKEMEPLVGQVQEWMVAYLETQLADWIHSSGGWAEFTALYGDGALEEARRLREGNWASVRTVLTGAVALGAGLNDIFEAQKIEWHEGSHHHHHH

[4] = target: T4, human Bcl-XL a.a. 1-205 with C-terminal avi-6his tag (human, UniProt Q07817 2-206); assay: yeast surface display titration (apparent KD)
T4 construct: also called BCL2L1

[5] = target: T5, human Bcl-2 a.a. 1-207 with C-terminal avi-6his tag (human, UniProt P10415 2-207); assay: yeast surface display titration (apparent KD)
[6] = target: T2, human Bfl-1 a.a. 1-153 (C4S) with …; assay: ratio of the KD of the next tightest BCL2 protein to the KD of the target, BLI
[7] = target: T1, human Mcl-1 a.a. 172-327 with …; assay: BLI, biotinylated target on streptavidin sensor, range of analyte concentrations
[8] = target: T6, human Bcl-B a.a. 11-175 with C-terminal avi-6his tag (human); assay: as above
T6 construct: also called BCL2L10
T6 chain: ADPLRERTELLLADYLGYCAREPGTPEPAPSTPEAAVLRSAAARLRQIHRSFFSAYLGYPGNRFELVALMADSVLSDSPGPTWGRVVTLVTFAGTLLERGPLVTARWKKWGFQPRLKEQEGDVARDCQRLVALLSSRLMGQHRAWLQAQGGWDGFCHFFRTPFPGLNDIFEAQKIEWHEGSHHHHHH

[9] = target: T2, human Bfl-1 a.a. 1-153 (C4S) with …; assay: as above
[10] = target: T3, human Bcl-w a.a. 1-182 with C-terminal …; assay: as above
[11] = target: T4, human Bcl-XL a.a. 1-205 with C-terminal …; assay: as above
[12] = target: T5, human Bcl-2 a.a. 1-207 with C-terminal …; assay: as above
[13] = target: T1, human Mcl-1 a.a. 172-327 with …; assay: BLI at a single analyte concentration (50 nM, 600 s association, then buffer); biotinylated BCL2 protein on a streptavidin sensor
[14] = target: T3, human Bcl-w a.a. 1-182 with C-terminal …; assay: as above
[15] = target: T4, human Bcl-XL a.a. 1-205 with C-terminal …; assay: as above
[16] = target: T5, human Bcl-2 a.a. 1-207 with C-terminal …; assay: as above
[17] = target: T4, human Bcl-XL a.a. 1-205 with C-terminal …; assay: ratio of the KD of the next tightest BCL2 protein to the KD of the target, BLI
[18] = target: T5, human Bcl-2 a.a. 1-207 with C-terminal …; assay: as above
[19] = target: T3, human Bcl-w a.a. 1-182 with C-terminal …; assay: initial BLI screening (column 'Binds target?')
[20] = target: T7, Epstein-Barr virus BHRF1 a.a. 1-161 with C-terminal avi-6his tag (Epstein-Barr virus); assay: yeast surface display
T7 construct: also called EBV BHRF1; BHRF1-biotin
T7 chain: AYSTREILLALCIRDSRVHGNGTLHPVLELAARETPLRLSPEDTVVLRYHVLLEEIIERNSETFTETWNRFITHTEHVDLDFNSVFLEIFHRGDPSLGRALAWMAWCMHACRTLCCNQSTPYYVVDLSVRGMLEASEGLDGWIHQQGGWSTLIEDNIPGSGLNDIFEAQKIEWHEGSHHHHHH

[21] = target: T7, Epstein-Barr virus BHRF1 a.a. 1-161 …; assay: yeast display library, FACS sort at 100 nM BHRF1, deep sequencing
[22] = target: T7, Epstein-Barr virus BHRF1 a.a. 1-161 …; assay: yeast display library, FACS sort at 400 nM BHRF1, deep sequencing
[23] = target: T3, human Bcl-w a.a. 1-182 with C-terminal …; assay: ratio of the KD of the next tightest BCL2 protein to the KD of the target, BLI

B1: BbpD04.3 (designed binder)
chain: ADWKKVLDKAKDIAENRVRELKQKLEEFYKEAMKLDLTQEMRRKLMLRWIAAMLMAIGDIFNAIRQAKQEADKLKKAGLVNSQQLDELKRRLEELKEEASRKARDYGREFQLKLEY
B1 showed a Kd [1] of 19 nM and a Kd [2] of 32 nM.

B2: BbpD04.1 (designed binder)
chain: ADWKKVLDKAKDIAENRVREIKQKLEEFYKEAMKLDLTQEMRRKLMLRWIAAMLMAIGDIFNAIRQAKQEADKLKKAGQVNSQLLDELKRRLEELKEEASRKCHDYGREFQLKLEY
With B2 the Kd [1] was 30 nM, the Kd [3] was 14 nM and the Kd [4] was 25 nM. For the same binder, the Kd [5] was 110 nM.

B3: F-CDP01 (designed binder)
chain: ADPKKVLDKAKDQAENRVRELKQKLEELYKEARKLDLTQEMRKKLQYAAIGAMLAAIGDILNAIMQAKQEADKLKKAGLVNSQQLDELKRRLEELKEEALRKAHDYGSEFYLKLEY
Binder B3 has a Specificity [6] of 1.8 fold, a Kd [7] of 4.6 nM and a Kd [8] of 210000 nM. The “apparent Kd (pooled screen)” value [9] was 2.6 nM, the Kd [10] was 590 nM and the Kd [11] was 9 nM. It also gave a Kd [12] of 20 nM.

B4: M-CDP02 (designed binder)
chain: ADPKKVLDKAKDQAENRVRELKQELEELYKEARKLDLTQEERRKLEESYIAAMLRAIGDIFNAIMQAKNEADKLKKAGLVNSQQLDELRRRLEELRKEASLKAEDYGREFQEKLEY
B4: binds [13]; binds [14]; binds [15]. B4: binds [16].

B5: XINDI (designed binder)
chain: ADPKKVLDKAKDRAENVVRKLKKELEELYKEARKLDLTQEMRDRIRRTAIAARFQAHGDIFHAIKHAKEEARKLKKAGLVNSQQLDELKRRLRELDEEAEQRAEKLGKEFRLKLEY
notes: also called X-ECM04; αBCLXL
In the case of B5, the Specificity [17] is reported as 660 fold, the Kd [10] is reported as 40000 nM and the Kd [11] is reported as 5.59 nM. The Kd [12] was 3700 nM.

B6: X-CDP07 (designed binder)
chain: ADPKKVLDKAKDRAENVVRKLKKELEELYKEARKLDLTQEMRDRIRLAAIAARIAAFGDIFHAIMEALEEARKLKKAGLVNSQQLDELKRRLEELDEEAAQRAEKLGKEFELKLEY
With B6 the Specificity [17] was 6.46 fold, the Kd [7] was 174 nM and the Kd [8] was 107 nM. For the same binder, the Kd [10] was 14.9 nM, the “apparent Kd (pooled screen)” value [11] was 0.59 nM and the Kd [12] was 3.81 nM.

B7: 2-INDI (designed binder)
chain: ADPKKVLDKAKDEAENRVRELKQRLEELYKEARKLDLTQEMRQELVDKARAASLQANGDIFYAILRALAEAEKLKKAGLVNSQQLDELKRRLEELAEEARRKAEKLRDEFRLKLEY
notes: also called αBCL2
B7 gave a Specificity [18] of 2210 fold, a Kd [10] of 1850 nM and a Kd [11] of 3500 nM. For the same binder, the Kd [12] was 0.839 nM.

B8: 2-CDP06 (designed binder)
chain: ADPKKVLDKAKDEAENRVRELKQKLEELYKEARKLDLTQEMRQELVDKARAASLQASGDIFYAILRALAEAEKLKKAGLVNSQQLDELKRRLEELAEEARRKAEKLGDEFRLKLEY
B8 showed a Specificity [18] of 190 fold, a Kd [10] of 1670 nM and a Kd [11] of 12000 nM. For the same binder, the “apparent Kd (pooled screen)” value [12] was 8.9 nM.

B9: W-CDP01 (designed binder)
chain: DPKKVFDKAKDKAENQVRYLKQRLEELYKEARKKDLTQEQRRKLKEKYLAAKLAAILAAIGDAFNALAEARELHKQGKVNKQQLDELAKRLDRLAEEAIQKAEDYAREFAYKLEY
B9: binds [19].

B10: Index 67 (designed binder)
chain: GNRSEEVKELMRELAERVLLKFRWRADEMNKEKDKKYDKEELKRELTEKWIAFALDAIGDLFNAAELAKKLADLFKKGTGFLEERLERRKEEIEKLEEKGSRKVSYEGRREAEKIESG
In the case of B10, the binding result [20] is reported as “no binding”, the Log2 enrichment ratio [21] is reported as -3.48 log2 and the Log2 enrichment ratio [22] is reported as -3.44 log2.

B11: W-CDP02 (designed binder)
chain: DPKKVLDKARDQALKRLEEMRKKLEESYKEARKKDLTQEERRKLEEKYAEAMKRAAEDIYNMIQQALKEAEKEKKAGQVNSQQLDKLREDLNNKLIAAALAAIGDAFNMAANLRT
B11: binds [19].

B12: WINDI (designed binder)
chain: DPKKVFDELKDRAENNVRRLKQKLEELYKEARKKDLTQEEREKLKTKYKTAMQLAALAAEGDIMNALLKARKLHKNGQVNEQQLEELARRLMELAKEAFQKAKDYANEFKYKLEY
notes: also called W-ECM01; αBCLW
B12 gave a Specificity [23] of 1590 fold, a Kd [10] of 1.01 nM and a Kd [11] of 1610 nM. The Kd [12] was 5700 nM.

B13: Index 15 (designed binder)
chain: GNDRDQIEEYHRERMDEELDRAKKRLEELKKLWEKLDGDDLMKFFWTFKWIAESLKIIGDLFNRLLRTWEFAEALKKGIGFDEKKAEEAKERAYERAAEAAWKAAKLSREMREFLLKG
In the case of B13, the binding result [20] is reported as “no binding”, the Log2 enrichment ratio [21] is reported as -2.77 log2 and the Log2 enrichment ratio [22] is reported as -0.71 log2.

B14: Index 47 (designed binder)
chain: GWSADWIKDQAKELMLRAAEEMKKRADEEEKKFKYKQFTTEFLTKATMRWIALALMAIGDVFNVLMWALEWAKRMAKLNQYRKEELEKAKEEAKKLAEKAARRITEIGREAEQKALKG
With B14 the binding result [20] was “no binding”, the Log2 enrichment ratio [21] was -3.13 log2 and the Log2 enrichment ratio [22] was -2.79 log2.
